Reference: patent publication US20060067886A1, “Gastrin receptor-avid peptide conjugates” (priority 1997, published 2006)

Assays:
[1] = system: PC-3 human tumor xenografts; test: in vivo
Procedure: (§1) In vivo pharmacokinetic studies in human tumor bearing SCID mice. […] The xenograft models were produced by bilateral flank inoculation of 5×10^6 cells (PC-3 or MDA-MB-231 cells) per site. Four to six weeks post inoculation, palpable tumors were observed. At this point, the mice were injected with 4 μCi of the complex in […] of isotonic saline via the tail vein. The mice were euthanized and tissues and organs were excised from the animals at selected times post-injection (p.i.), including 15 minutes, 30 minutes, 1 hour, 4 hours, 24 hours, 48 hours, and 72 hours p.i. Subsequently, the tissues and organs were weighed and counted in a NaI well counter and the percent injected dose (% ID) and % ID/g of each organ or tissue calculated.
(§2) The mice were injected with 4 μCi of the complex in 100 μL of isotonic saline via the tail vein. The mice were euthanized by cervical dislocation. Tissues and organs were excised from the animals following at 1 hour, 4 hour, and 24 hours post-injection (p.i.). Subsequently, the tissues and organs were weighed and counted in a NaI well counter and the percent injected dose (% ID) and % ID/g of each organ or tissue calculated.

[2] = in vivo; settings: SCID, mouse, in vivo, iv, 4 uCi, total radioactivity, Avg % ID, Heart, 24 hrs
Procedure: as §1, §2

[3] = Biodistribution of radiometal-DOTA-BBN conjugates in CF1 normal mice; settings: 1 hour post-injection

SMILES: CSCC[C@H](NC(=O)[C@H](CC(C)C)NC(=O)[C@H](Cc1cnc[nH]1)NC(=O)CNC(=O)[C@@H](NC(=O)[C@H](C)NC(=O)[C@H](Cc1c[nH]c2ccccc12)NC(=O)[C@H](CCC(N)=O)NC(=O)CCCCCCCNC(=O)CN1CCN(CC(=O)O)CCN(CC(=O)O)CCN(CC(=O)O)CC1)C(C)C)C(N)=O [90Y-DOTA-8-Aoc-BBN[7-14]NH2] [metal not drawn]
- Avg % ID, Blood ([1]; 1 hr): 0.56 ± 0.20 % ID
- Avg % ID, Carcass ([1]; 1 hr): 0.62 ± 0.44 % ID
- Avg % ID, Kidney ([1]; 1 hr): 1.22 ± 0.46 % ID
- Avg % ID, L. Intestine ([1]; 1 hr): 2.44 ± 0.66 % ID
- Avg % ID, Lung ([1]; 1 hr): 0.06 ± 0.03 % ID
- Avg % ID, Muscle ([1]; 1 hr): 0.02 ± 0.02 % ID
- Avg % ID, Pancreas ([1]; 1 hr): 5.70 ± 1.60 % ID
- Avg % ID, S. Intestine ([1]; 1 hr): 4.65 ± 0.98 % ID
- Avg % ID, Spleen ([1]; 1 hr): 0.07 ± 0.04 % ID
- Avg % ID, Urine ([1]; 1 hr): 57.73 ± 14.52 % ID
- Avg % ID/gm, Blood ([1]; 1 hr): 0.34 ± 0.12 % ID/gm
- Avg % ID/gm, Heart ([1]; 1 hr): 0.10 ± 0.11 % ID/gm
- Avg % ID/gm, Lung ([1]; 1 hr): 0.22 ± 0.12 % ID/gm
- Avg % ID/gm, Muscle ([1]; 1 hr): 0.15 ± 0.19 % ID/gm
- Avg % ID/gm, Pancreas ([1]; 1 hr): 24.73 ± 4.97 % ID/gm
- Avg % ID/gm, Spleen ([1]; 1 hr): 1.09 ± 0.67 % ID/gm
- Avg % ID/gm, Stomach ([1]; 1 hr): 1.34 ± 0.64 % ID/gm
- Avg % ID/gm, Tumor ([1]; 1 hr): 2.95±0.99 % ID/gm
- Avg % ID, Blood ([1]; 4 hrs): 0.09 ± 0.13 % ID
- Avg % ID, Carcass ([1]; 4 hrs): 0.14 ± 0.11 % ID
- Avg % ID, Kidney ([1]; 4 hrs): 0.54 ± 0.25 % ID
- Avg % ID, L. Intestine ([1]; 4 hrs): 3.33 ± 0.71 % ID
- Avg % ID, Liver ([1]; 4 hrs): 0.19 ± 0.13 % ID
- Avg % ID, Pancreas ([1]; 4 hrs): 3.42 ± 0.82 % ID
- Avg % ID, S. Intestine ([1]; 4 hrs): 2.06 ± 1.27 % ID
- Avg % ID, Spleen ([1]; 4 hrs): 0.02 ± 0.03 % ID
- Avg % ID, Stomach ([1]; 4 hrs): 0.18 ± 0.06 % ID
- Avg % ID, Tumor ([1]; 4 hrs): 0.34 ± 0.22 % ID
- Avg % ID, Urine ([1]; 4 hrs): 67.02 ± 16.74 % ID
- Avg % ID/gm, Blood ([1]; 4 hrs): 0.05 ± 0.07 % ID/gm
- Avg % ID/gm, Heart ([1]; 4 hrs): 0.10 ± 0.14 % ID/gm
- Avg % ID/gm, Kidney ([1]; 4 hrs): 1.68 ± 0.76 % ID/gm
- Avg % ID/gm, L. Intestine ([1]; 4 hrs): 5.17 ± 1.85 % ID/gm
- Avg % ID/gm, Liver ([1]; 4 hrs): 0.18 ± 0.12 % ID/gm
- Avg % ID/gm, Lung ([1]; 4 hrs): 0.07 ± 0.07 % ID/gm
- Avg % ID/gm, Muscle ([1]; 4 hrs): 0.07 ± 0.13 % ID/gm
- Avg % ID/gm, Pancreas ([1]; 4 hrs): 14.02 ± 4.89 % ID/gm
- Avg % ID/gm, S. Intestine ([1]; 4 hrs): 1.66 ± 0.91 % ID/gm
- Avg % ID/gm, Stomach ([1]; 4 hrs): 0.55 ± 0.16 % ID/gm
- Avg % ID/gm, Tumor ([1]; 4 hrs): 1.98±0.66 % ID/gm
- Avg % ID, Blood ([1]; 24 hrs): 0.12 ± 0.14 % ID
- Avg % ID, Feces ([1]; 24 hrs): 10.71 ± 8.29 % ID
- Avg % ID, Heart ([1]; 24 hrs): 0.00 ± 0.00 % ID
- Avg % ID, Kidney ([1]; 24 hrs): 0.17 ± 0.09 % ID
- Avg % ID, L. Intestine ([1]; 24 hrs): 1.11 ± 0.75 % ID
- Avg % ID, Liver ([1]; 24 hrs): 0.10 ± 0.03 % ID
- Avg % ID, Lung ([1]; 24 hrs): 0.00 ± 0.00 % ID
- Avg % ID, Muscle ([1]; 24 hrs): 0.00 ± 0.01 % ID
- Avg % ID, S. Intestine ([1]; 24 hrs): 0.51 ± 0.20 % ID
- Avg % ID, Tumor ([1]; 24 hrs): 0.16 ± 0.09 % ID
- Avg % ID, Urine ([1]; 24 hrs): 67.62 ± 17.26 % ID
- Avg % ID/gm, Blood ([1]; 24 hrs): 0.07 ± 0.08 % ID/gm
- Avg % ID/gm, Heart ([1]; 24 hrs): 0.00 ± 0.00 % ID/gm
- Avg % ID/gm, Kidney ([1]; 24 hrs): 0.51 ± 0.25 % ID/gm
- Avg % ID/gm, L. Intestine ([1]; 24 hrs): 1.27 ± 0.92 % ID/gm
- Avg % ID/gm, Liver ([1]; 24 hrs): 0.08 ± 0.03 % ID/gm
- Avg % ID/gm, Lung ([1]; 24 hrs): 0.01 ± 0.02 % ID/gm
- Avg % ID/gm, Muscle ([1]; 24 hrs): 0.02 ± 0.03 % ID/gm
- Avg % ID/gm, Pancreas ([1]; 24 hrs): 1.80 ± 0.57 % ID/gm
- Avg % ID/gm, Spleen ([1]; 24 hrs): 0.11 ± 0.13 % ID/gm
- Avg % ID/gm, Stomach ([1]; 24 hrs): 0.09 ± 0.07 % ID/gm
- Avg % ID/gm, Tumor ([1]; 24 hrs): 1.08±0.37 % ID/gm
- Avg % ID, Blood ([1]; 48 hrs): 0.10 ± 0.14 % ID
- Avg % ID, Carcass ([1]; 48 hrs): 0.11 ± 0.17 % ID
- Avg % ID, Heart ([1]; 48 hrs): 0.02 ± 0.02 % ID
- Avg % ID, Kidney ([1]; 48 hrs): 0.10 ± 0.04 % ID
- Avg % ID, Pancreas ([1]; 48 hrs): 0.15 ± 0.04 % ID
- Avg % ID, S. Intestine ([1]; 48 hrs): 0.16 ± 0.06 % ID
- Avg % ID, Tumor ([1]; 48 hrs): 0.11 ± 0.07 % ID
- Avg % ID, Urine ([1]; 48 hrs): 76.74 ± 21.06 % ID
- Avg % ID/gm, Blood ([1]; 48 hrs): 0.06 ± 0.08 % ID/gm
- Avg % ID/gm, Heart ([1]; 48 hrs): 0.14 ± 0.19 % ID/gm
- Avg % ID/gm, Kidney ([1]; 48 hrs): 0.29 ± 0.12 % ID/gm
- Avg % ID/gm, L. Intestine ([1]; 48 hrs): 0.77 ± 0.15 % ID/gm
- Avg % ID/gm, Muscle ([1]; 48 hrs): 0.07 ± 0.13 % ID/gm
- Avg % ID/gm, Pancreas ([1]; 48 hrs): 0.59 ± 0.14 % ID/gm
- Avg % ID/gm, S. Intestine ([1]; 48 hrs): 0.13 ± 0.04 % ID/gm
- Avg % ID/gm, Spleen ([1]; 48 hrs): 0.09 ± 0.24 % ID/gm
- Avg % ID/gm, Tumor ([1]; 48 hrs): 0.58 ± 0.30 % ID/gm
- Avg % ID, Blood ([1]; 72 hrs): 0.11 ± 0.15 % ID
- Avg % ID, Carcass ([1]; 72 hrs): 0.10 ± 0.11 % ID
- Avg % ID, Kidney ([1]; 72 hrs): 0.13 ± 0.07 % ID
- Avg % ID, Liver ([1]; 72 hrs): 0.08 ± 0.11 % ID
- Avg % ID, Lung ([1]; 72 hrs): 0.00 ± 0.01 % ID
- Avg % ID, Pancreas ([1]; 72 hrs): 0.08 ± 0.05 % ID
- Avg % ID, S. Intestine ([1]; 72 hrs): 0.11 ± 0.07 % ID
- Avg % ID, Spleen ([1]; 72 hrs): 0.02 ± 0.01 % ID
- Avg % ID, Tumor ([1]; 72 hrs): 0.06 ± 0.06 % ID
- Avg % ID, Urine ([1]; 72 hrs): 82.97 ± 25.39 % ID
- Avg % ID/gm, Blood ([1]; 72 hrs): 0.06 ± 0.09 % ID/gm
- Avg % ID/gm, Kidney ([1]; 72 hrs): 0.43 ± 0.29 % ID/gm
- Avg % ID/gm, L. Intestine ([1]; 72 hrs): 0.47 ± 0.24 % ID/gm
- Avg % ID/gm, Liver ([1]; 72 hrs): 0.08 ± 0.11 % ID/gm
- Avg % ID/gm, Lung ([1]; 72 hrs): 0.02 ± 0.03 % ID/gm
- Avg % ID/gm, Muscle ([1]; 72 hrs): 0.08 ± 0.19 % ID/gm
- Avg % ID/gm, Pancreas ([1]; 72 hrs): 0.27 ± 0.17 % ID/gm
- Avg % ID/gm, S. Intestine ([1]; 72 hrs): 0.08 ± 0.05 % ID/gm
- Avg % ID/gm, Spleen ([1]; 72 hrs): 0.28 ± 0.26 % ID/gm
- Avg % ID/gm, Stomach ([1]; 72 hrs): 0.07 ± 0.03 % ID/gm
- Avg % ID/gm, Tumor ([1]; 72 hrs): 0.46 ± 0.48 % ID/gm

SMILES: CSCC[C@H](NC(=O)[C@H](CC(C)C)NC(=O)[C@H](Cc1cnc[nH]1)NC(=O)CNC(=O)[C@@H](NC(=O)[C@H](C)NC(=O)[C@H](Cc1c[nH]c2ccccc12)NC(=O)[C@H](CCC(N)=O)NC(=O)CCCCCCCNC(=O)CN1CCN(CC(=O)O)CCN(CC(=O)O)CCN(CC(=O)O)CC1)C(C)C)C(N)=O [177Lu-DOTA-8-Aoc-BBN[7-14]NH2, metal not drawn]
- tissue uptake dose at 24 h [2]: 0.01 %ID

SMILES: CSCC[C@H](NC(=O)[C@H](CC(C)C)NC(=O)[C@H](Cc1cnc[nH]1)NC(=O)CNC(=O)[C@@H](NC(=O)[C@H](C)NC(=O)[C@H](Cc1c[nH]c2ccccc12)NC(=O)[C@H](CCC(N)=O)NC(=O)CCNC(=O)CN1CCN(CC(=O)O)CCN(CC(=O)O)CCN(CC(=O)O)CC1)C(C)C)C(N)=O [111In-DOTA-β-Ala-BBN[7-14]NH2] [metal not drawn]
- Avg % ID, Heart [3]: 0.01 ± 0.01 % ID
- Avg % ID, L. Intestine [3]: 0.90 ± 0.57 % ID
- Avg % ID, Muscle [3]: 0.01 ± 0.01 % ID
- Avg % ID, Pancreas [3]: 1.84 ± 0.35 % ID
- Avg % ID, S. Intestine [3]: 1.57 ± 0.65 % ID
- Avg % ID, Spleen [3]: 0.05 ± 0.00 % ID
- Avg % ID/gm, Heart [3]: 0.06 ± 0.04 % ID/gm
- Avg % ID/gm, L. Intestine [3]: 1.10 ± 0.78 % ID/gm
- Avg % ID/gm, Muscle [3]: 0.03 ± 0.02 % ID/gm
- Avg % ID/gm, Pancreas [3]: 4.92 ± 0.37 % ID/gm
- Avg % ID/gm, S. Intestine [3]: 1.01 ± 0.37 % ID/gm
- Avg % ID/gm, Spleen [3]: 0.37 ± 0.06 % ID/gm
